Here are results for three molecules from article PMC10512533, “A strategy to enhance and modify fatty acid synthesis in Corynebacterium glutamicum and Escherichia coli: overexpression of acyl-CoA thioesterases” (Microbial Cell Factories, 2023).

What all share (experiment): thioesterase assay, Lineweaver-Burk plot
For one data set, the target named is T1, TesA (Corynebacterium glutamicum, UniProt Q8NMW3).
T1 construct: gene Cgl2451; full length in pET-28a(+), His-tag (Ni-NTA), E. coli BL21(DE3); forward primer encodes MAANN start; TE1 family
T1 sequence (Q8NMW3 1-155): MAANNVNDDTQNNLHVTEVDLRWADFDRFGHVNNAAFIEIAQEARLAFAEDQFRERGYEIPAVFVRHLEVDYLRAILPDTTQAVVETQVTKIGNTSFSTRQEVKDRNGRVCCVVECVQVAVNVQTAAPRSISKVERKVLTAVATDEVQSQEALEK
It counts as biochemical. Particulars: optimal substrate; assay conditions of the kinetics not stated (optimum 30 °C, pH 8.0). The text has this: thioesterase assay, Lineweaver-Burk plot on TesA | of TesA estimated through fitting to the Michaelis–Menten equation

Substrate in data set [1]: CCCCCCCC(=O)SCCNC(=O)CCNC(=O)[C@H](O)C(C)(C)COP(=O)(O)OP(=O)(O)OC[C@H]1O[C@@H](n2cnc3c(N)ncnc32)[C@H](O)[C@@H]1OP(=O)(O)O
It counts as biochemical, Corynebacterium glutamicum. Conditions: optimal substrate, assay conditions of the kinetics not stated (optimum 30 °C, pH 8.0), authors' other TesB properties (Fig. 5) come from their previous studies.

Substrate in data set [2]: CC(=O)SCCNC(=O)CCNC(=O)[C@H](O)C(C)(C)COP(=O)(O)OP(=O)(O)OC[C@H]1O[C@@H](n2cnc3c(N)ncnc32)[C@H](O)[C@@H]1OP(=O)(O)O
It counts as biochemical, Corynebacterium glutamicum. Conditions: optimal substrate, assay conditions of the kinetics not stated (optimum 30 °C, pH 9.0).

On to `CCCCCCCCCCCC(=O)SCCNC(=O)CCNC(=O)[C@H](O)C(C)(C)COP(=O)(O)OP(=O)(O)OC[C@H]1O[C@@H](n2cnc3c(N)ncnc32)[C@H](O)[C@@H]1OP(=O)(O)O` [C12, lauroyl-CoA], for which the Km on TesA came to 1380 µM.

B1: TesB (Corynebacterium glutamicum ATCC 13032) (protein)
chain: MKTIEDILTLEEIDRDIYRGPVIESYLARTFGGQVAAQALVAATHTVDKAFTVHSLHGYFIAPGDPTAPAIYLVDRVRDGKSYVTRSVRGIQDGEVIFSMQASFHRGDEGIEHMDKMRKVPAPDEIKGTVERMPISSRRVLDEWAEWDIRVIPQDQLELSDFTATEQAVWIRCTADLPDNPTFHQCSLTYLSDMTLLHSALVPHPGEKMQMASLDHAVWFLRPFRVDEWLLYDQRSPSASSGRALTHGRLFNQQGDLVAIVNQEGMTRTLHEGAQSIPMRKD
notes: full length in pET-28a(+), His-tag (Ni-NTA), E. coli BL21(DE3); forward primer encodes MKTIE start; TE4 family
For the molecule B1, in data set [1], the Km is 5450 µM.

B2: TE9 (Corynebacterium glutamicum ATCC 13032) (protein)
chain: MFLTLSGADMSALIKGSGPHHVVVLNGWFGHAAGWGAFADYLDLGNYTWHFWDYRGYGNRKDDAGEFTLEEISADIVAYIDSIEAEKVSILGHSMGGVFMQKVLADSATPIASLVGISAVAAAGTPFDEDSRKLFTSAGHNPDSRRAIIDFTSGSRQPAAWLDDLTDSTVQNSTPEAVEKYFFAWADCNFAADLGTQDLPVYILTGDLDPAVTKTAVESAFGPIYQNLTVEELHDVGHYAIFEHPLGLAARVLRFLDAV
notes: full length in pET-28a(+), His-tag (Ni-NTA), E. coli BL21(DE3); forward primer encodes MFLTL start
As for B2, the Km in data set [2] amounted to 1810 µM.

What is called Km is the substrate concentration at which the rate is half of its maximum.
